We go through 125 sequences from the supplement of paper PMC9112550, “Optimization of the antimicrobial peptide Bac7 by deep mutational scanning” (BMC Biology, 2022).

This data set has as its system Escherichia coli TOP10. Kind of data set: shrunken log2 fold change of peptide-encoding DNA abundance (4.5 h post-induction vs induction); higher = less antimicrobial activity (less host growth inhibition). The following applies: time post-induction: 4.5 h; library: site-saturation at positions 5, 18, 19, 20.
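Also: peptides expressed intracellularly from a pBAD plasmid library in pooled LB shake-flask culture, induced with 0.3% L-arabinose, DNA abundance read by NGS, three biological replicates, DESeq2 with apeglm shrinkage.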

With RRIRWRPPRLPRPRPRPGPNPRP, the “shrunken log2 fold change” value came out at 0.194.

As for RRIRMRPPRLPRPRPRPLRTPRP, the “shrunken log2 fold change” value came out at 3.45.

In the case of RRIRNRPPRLPRPRPRPHKEPRP, the “shrunken log2 fold change” value was determined as 0.0155.

Turning to RRIRHRPPRLPRPRPRPSYGPRP, the “shrunken log2 fold change” value was -0.34.

As to RRIRTRPPRLPRPRPRPWLYPRP, the “shrunken log2 fold change” value was -0.161.

As for RRIRWRPPRLPRPRPRPCDWPRP, the “shrunken log2 fold change” value stood at 0.0315.

On to RRIRHRPPRLPRPRPRPGFHPRP, for which the “shrunken log2 fold change” value was -0.323.

On to RRIRERPPRLPRPRPRPEYGPRP, for which the “shrunken log2 fold change” value is -0.315.

With RRIRKRPPRLPRPRPRPCNRPRP, the “shrunken log2 fold change” value is 0.0247.

As to RRIRFRPPRLPRPRPRPFNIPRP, the “shrunken log2 fold change” value was -0.429.

In the case of RRIRRRPPRLPRPRPRPGSRPRP, the “shrunken log2 fold change” value was 0.155.

Regarding RRIRCRPPRLPRPRPRPYGWPRP, the “shrunken log2 fold change” value was -0.27.

Turning to RRIRERPPRLPRPRPRPKRFPRP, the “shrunken log2 fold change” value is -0.0239.

Turning to RRIRKRPPRLPRPRPRPNPAPRP, the “shrunken log2 fold change” value was -0.000888.

For RRIRIRPPRLPRPRPRPGVRPRP, the “shrunken log2 fold change” value was 0.135.

Turning to RRIRDRPPRLPRPRPRPPNMPRP, the “shrunken log2 fold change” value came to 0.0281.

Regarding RRIRGRPPRLPRPRPRPMRLPRP, the “shrunken log2 fold change” value was 1.05.

Consider RRIRHRPPRLPRPRPRPACGPRP, for which the “shrunken log2 fold change” value stood at 0.216.

In the case of RRIRSRPPRLPRPRPRPSYYPRP, the “shrunken log2 fold change” value is -0.529.

Turning to RRIRARPPRLPRPRPRPPIQPRP, the “shrunken log2 fold change” value turned out to be 0.431.

RRIRKRPPRLPRPRPRPLPWPRP: the “shrunken log2 fold change” value was found to be 0.814.

As to RRIRQRPPRLPRPRPRPNNCPRP, the “shrunken log2 fold change” value is -0.138.

Turning to RRIRSRPPRLPRPRPRPNWPPRP, the “shrunken log2 fold change” value was 0.278.

With RRIRVRPPRLPRPRPRPWLWPRP, the “shrunken log2 fold change” value is 0.475.

Turning to RRIRTRPPRLPRPRPRPGGLPRP, the “shrunken log2 fold change” value was -0.0407.

For the sequence RRIRDRPPRLPRPRPRPFGCPRP, the “shrunken log2 fold change” value is -0.109.

For the sequence RRIRDRPPRLPRPRPRPTEYPRP, the “shrunken log2 fold change” value was -0.154.

For the sequence RRIRDRPPRLPRPRPRPKGFPRP, the “shrunken log2 fold change” value is -0.073.

Take RRIRWRPPRLPRPRPRPTCYPRP: the “shrunken log2 fold change” value is -0.0755.

RRIRDRPPRLPRPRPRPKMWPRP: the “shrunken log2 fold change” value was found to be 0.123.

For the sequence RRIRARPPRLPRPRPRPKTVPRP, the “shrunken log2 fold change” value was 0.141.

With RRIRARPPRLPRPRPRPHAYPRP, the “shrunken log2 fold change” value was 0.0225.

As for RRIRDRPPRLPRPRPRPWGNPRP, the “shrunken log2 fold change” value is -0.0163.

With RRIRNRPPRLPRPRPRPFSQPRP, the “shrunken log2 fold change” value was -0.021.

Regarding RRIRQRPPRLPRPRPRPDNSPRP, the “shrunken log2 fold change” value is -0.0422.

On to RRIRSRPPRLPRPRPRPHMFPRP, for which the “shrunken log2 fold change” value was -0.428.

On to RRIRDRPPRLPRPRPRPLMFPRP, for which the “shrunken log2 fold change” value is -0.188.

Take RRIRHRPPRLPRPRPRPQTMPRP: the “shrunken log2 fold change” value stood at 3.11.

For RRIRVRPPRLPRPRPRPGMGPRP, the “shrunken log2 fold change” value was 0.0724.

RRIRGRPPRLPRPRPRPHTMPRP: the “shrunken log2 fold change” value was -0.175.

In the case of RRIRIRPPRLPRPRPRPGAAPRP, the “shrunken log2 fold change” value was found to be 0.18.

In the case of RRIRLRPPRLPRPRPRPIPLPRP, the “shrunken log2 fold change” value is 0.0264.

For the sequence RRIRVRPPRLPRPRPRPFFCPRP, the “shrunken log2 fold change” value was -0.00678.

RRIRQRPPRLPRPRPRPLEEPRP: the “shrunken log2 fold change” value is 0.275.

Take RRIRKRPPRLPRPRPRPNKDPRP: the “shrunken log2 fold change” value was found to be 0.0544.

Turning to RRIRLRPPRLPRPRPRPGQQPRP, the “shrunken log2 fold change” value is -0.0555.

For the sequence RRIRKRPPRLPRPRPRPIRFPRP, the “shrunken log2 fold change” value was -0.186.

RRIRPRPPRLPRPRPRPSPTPRP: the “shrunken log2 fold change” value came to 0.22.

Take RRIRLRPPRLPRPRPRPSWYPRP: the “shrunken log2 fold change” value was -0.294.

As to RRIRSRPPRLPRPRPRPEFNPRP, the “shrunken log2 fold change” value is 0.24.

On to RRIRTRPPRLPRPRPRPPMEPRP, for which the “shrunken log2 fold change” value is -0.00995.

Consider RRIRRRPPRLPRPRPRPTGMPRP, for which the “shrunken log2 fold change” value was found to be 0.906.

For RRIRVRPPRLPRPRPRPSGEPRP, the “shrunken log2 fold change” value amounted to 0.0818.

On to RRIRFRPPRLPRPRPRPKFFPRP, for which the “shrunken log2 fold change” value was -0.00377.

With RRIRVRPPRLPRPRPRPPCTPRP, the “shrunken log2 fold change” value was -0.159.

Turning to RRIRGRPPRLPRPRPRPIPKPRP, the “shrunken log2 fold change” value was -0.117.

As for RRIRERPPRLPRPRPRPNYSPRP, the “shrunken log2 fold change” value was -0.63.

On to RRIRLRPPRLPRPRPRPTFTPRP, for which the “shrunken log2 fold change” value is -0.346.

As for RRIRHRPPRLPRPRPRPSIVPRP, the “shrunken log2 fold change” value is -0.0474.

On to RRIRFRPPRLPRPRPRPGSSPRP, for which the “shrunken log2 fold change” value is -0.0565.

Turning to RRIRDRPPRLPRPRPRPHCDPRP, the “shrunken log2 fold change” value is -0.0666.

Consider RRIRIRPPRLPRPRPRPKMEPRP, for which the “shrunken log2 fold change” value is -0.103.

Consider RRIRKRPPRLPRPRPRPREPPRP, for which the “shrunken log2 fold change” value amounted to 1.39.

In the case of RRIRKRPPRLPRPRPRPPFQPRP, the “shrunken log2 fold change” value was determined as 0.119.

As to RRIRPRPPRLPRPRPRPYTMPRP, the “shrunken log2 fold change” value came to 0.0535.

For the sequence RRIRPRPPRLPRPRPRPTCTPRP, the “shrunken log2 fold change” value came out at 0.104.

Take RRIRMRPPRLPRPRPRPVSHPRP: the “shrunken log2 fold change” value was found to be 0.259.

In the case of RRIRPRPPRLPRPRPRPRWAPRP, the “shrunken log2 fold change” value was 0.394.

In the case of RRIRVRPPRLPRPRPRPLPFPRP, the “shrunken log2 fold change” value is -0.367.

Consider RRIRFRPPRLPRPRPRPAGLPRP, for which the “shrunken log2 fold change” value was -0.0796.

For the sequence RRIRSRPPRLPRPRPRPYRAPRP, the “shrunken log2 fold change” value is -0.019.

Turning to RRIRKRPPRLPRPRPRPKVKPRP, the “shrunken log2 fold change” value is 0.116.

Consider RRIRARPPRLPRPRPRPWAAPRP, for which the “shrunken log2 fold change” value stood at 0.239.

Regarding RRIRGRPPRLPRPRPRPIWGPRP, the “shrunken log2 fold change” value was 0.128.

Regarding RRIRQRPPRLPRPRPRPVYNPRP, the “shrunken log2 fold change” value is -0.0538.

Regarding RRIRMRPPRLPRPRPRPYKFPRP, the “shrunken log2 fold change” value is 0.0435.

Consider RRIRFRPPRLPRPRPRPEDWPRP, for which the “shrunken log2 fold change” value amounted to 0.181.

Turning to RRIRVRPPRLPRPRPRPWVTPRP, the “shrunken log2 fold change” value was -0.375.

Turning to RRIRHRPPRLPRPRPRPWGCPRP, the “shrunken log2 fold change” value was -0.106.

With RRIRNRPPRLPRPRPRPYPGPRP, the “shrunken log2 fold change” value is -0.123.

With RRIRDRPPRLPRPRPRPSNEPRP, the “shrunken log2 fold change” value was -1.13.

On to RRIRFRPPRLPRPRPRPIHNPRP, for which the “shrunken log2 fold change” value was -0.745.

As for RRIRKRPPRLPRPRPRPPGTPRP, the “shrunken log2 fold change” value came out at 0.794.

For the sequence RRIRGRPPRLPRPRPRPWTVPRP, the “shrunken log2 fold change” value is -0.0833.

For the sequence RRIRKRPPRLPRPRPRPFPNPRP, the “shrunken log2 fold change” value is 0.0546.

For the sequence RRIRYRPPRLPRPRPRPASRPRP, the “shrunken log2 fold change” value is -0.0366.

Consider RRIRSRPPRLPRPRPRPEQGPRP, for which the “shrunken log2 fold change” value stood at 0.0683.

Consider RRIRDRPPRLPRPRPRPLNHPRP, for which the “shrunken log2 fold change” value is -0.154.

As for RRIRMRPPRLPRPRPRPSDGPRP, the “shrunken log2 fold change” value was -0.205.

Consider RRIRNRPPRLPRPRPRPDCIPRP, for which the “shrunken log2 fold change” value is -0.194.

Turning to RRIRTRPPRLPRPRPRPSHHPRP, the “shrunken log2 fold change” value is -0.646.

As to RRIRWRPPRLPRPRPRPQDQPRP, the “shrunken log2 fold change” value is 0.0586.

For RRIRNRPPRLPRPRPRPHLHPRP, the “shrunken log2 fold change” value was -0.121.

Consider RRIRERPPRLPRPRPRPDIHPRP, for which the “shrunken log2 fold change” value was -0.512.

In the case of RRIRNRPPRLPRPRPRPRYQPRP, the “shrunken log2 fold change” value is -0.19.

With RRIRERPPRLPRPRPRPCGTPRP, the “shrunken log2 fold change” value was -0.00758.

With RRIRFRPPRLPRPRPRPFPWPRP, the “shrunken log2 fold change” value was -0.211.

RRIRYRPPRLPRPRPRPCNKPRP: the “shrunken log2 fold change” value was -0.0167.

Consider RRIRIRPPRLPRPRPRPYDTPRP, for which the “shrunken log2 fold change” value was -0.0277.

With RRIRRRPPRLPRPRPRPDDIPRP, the “shrunken log2 fold change” value is -0.00879.

Take RRIRQRPPRLPRPRPRPNSEPRP: the “shrunken log2 fold change” value was -0.206.

For RRIRRRPPRLPRPRPRPLIYPRP, the “shrunken log2 fold change” value was 0.431.

In the case of RRIRTRPPRLPRPRPRPKTCPRP, the “shrunken log2 fold change” value was found to be 0.012.

Regarding RRIRYRPPRLPRPRPRPSHNPRP, the “shrunken log2 fold change” value is -0.628.

In the case of RRIRNRPPRLPRPRPRPIPLPRP, the “shrunken log2 fold change” value was 0.0142.

Take RRIRFRPPRLPRPRPRPYEIPRP: the “shrunken log2 fold change” value was -0.241.

With RRIRHRPPRLPRPRPRPEYFPRP, the “shrunken log2 fold change” value was -0.0339.

As to RRIRIRPPRLPRPRPRPWAEPRP, the “shrunken log2 fold change” value was -0.167.

Take RRIRGRPPRLPRPRPRPLQEPRP: the “shrunken log2 fold change” value was 1.56.

As to RRIRRRPPRLPRPRPRPNKEPRP, the “shrunken log2 fold change” value is -0.0865.

RRIRYRPPRLPRPRPRPYKDPRP: the “shrunken log2 fold change” value is -0.748.

Consider RRIRDRPPRLPRPRPRPVRFPRP, for which the “shrunken log2 fold change” value amounted to 0.189.

As to RRIRFRPPRLPRPRPRPEHPPRP, the “shrunken log2 fold change” value is -0.0569.

Consider RRIRFRPPRLPRPRPRPDMVPRP, for which the “shrunken log2 fold change” value is -0.499.

In the case of RRIRCRPPRLPRPRPRPKITPRP, the “shrunken log2 fold change” value was -0.573.

Consider RRIRWRPPRLPRPRPRPACLPRP, for which the “shrunken log2 fold change” value was found to be 0.521.

Turning to RRIRGRPPRLPRPRPRPKIEPRP, the “shrunken log2 fold change” value amounted to 0.566.

For RRIRNRPPRLPRPRPRPKTGPRP, the “shrunken log2 fold change” value is -0.0778.

As for RRIRMRPPRLPRPRPRPDAYPRP, the “shrunken log2 fold change” value turned out to be 0.414.

In the case of RRIRYRPPRLPRPRPRPIFIPRP, the “shrunken log2 fold change” value is -0.631.

As for RRIRYRPPRLPRPRPRPPVNPRP, the “shrunken log2 fold change” value is -0.153.

RRIRHRPPRLPRPRPRPFMCPRP: the “shrunken log2 fold change” value was -0.57.

As to RRIRGRPPRLPRPRPRPNWMPRP, the “shrunken log2 fold change” value was -0.194.

Take RRIRMRPPRLPRPRPRPIEFPRP: the “shrunken log2 fold change” value amounted to 0.103.

As to RRIRTRPPRLPRPRPRPNKHPRP, the “shrunken log2 fold change” value was -0.448.
